Reference: patent publication US20100160228

Target: VEGFR2 (vascular endothelial growth factor receptor 2), expressed from plasmid in HEK293 cells, P35968
Sequence (P35968 20-1356): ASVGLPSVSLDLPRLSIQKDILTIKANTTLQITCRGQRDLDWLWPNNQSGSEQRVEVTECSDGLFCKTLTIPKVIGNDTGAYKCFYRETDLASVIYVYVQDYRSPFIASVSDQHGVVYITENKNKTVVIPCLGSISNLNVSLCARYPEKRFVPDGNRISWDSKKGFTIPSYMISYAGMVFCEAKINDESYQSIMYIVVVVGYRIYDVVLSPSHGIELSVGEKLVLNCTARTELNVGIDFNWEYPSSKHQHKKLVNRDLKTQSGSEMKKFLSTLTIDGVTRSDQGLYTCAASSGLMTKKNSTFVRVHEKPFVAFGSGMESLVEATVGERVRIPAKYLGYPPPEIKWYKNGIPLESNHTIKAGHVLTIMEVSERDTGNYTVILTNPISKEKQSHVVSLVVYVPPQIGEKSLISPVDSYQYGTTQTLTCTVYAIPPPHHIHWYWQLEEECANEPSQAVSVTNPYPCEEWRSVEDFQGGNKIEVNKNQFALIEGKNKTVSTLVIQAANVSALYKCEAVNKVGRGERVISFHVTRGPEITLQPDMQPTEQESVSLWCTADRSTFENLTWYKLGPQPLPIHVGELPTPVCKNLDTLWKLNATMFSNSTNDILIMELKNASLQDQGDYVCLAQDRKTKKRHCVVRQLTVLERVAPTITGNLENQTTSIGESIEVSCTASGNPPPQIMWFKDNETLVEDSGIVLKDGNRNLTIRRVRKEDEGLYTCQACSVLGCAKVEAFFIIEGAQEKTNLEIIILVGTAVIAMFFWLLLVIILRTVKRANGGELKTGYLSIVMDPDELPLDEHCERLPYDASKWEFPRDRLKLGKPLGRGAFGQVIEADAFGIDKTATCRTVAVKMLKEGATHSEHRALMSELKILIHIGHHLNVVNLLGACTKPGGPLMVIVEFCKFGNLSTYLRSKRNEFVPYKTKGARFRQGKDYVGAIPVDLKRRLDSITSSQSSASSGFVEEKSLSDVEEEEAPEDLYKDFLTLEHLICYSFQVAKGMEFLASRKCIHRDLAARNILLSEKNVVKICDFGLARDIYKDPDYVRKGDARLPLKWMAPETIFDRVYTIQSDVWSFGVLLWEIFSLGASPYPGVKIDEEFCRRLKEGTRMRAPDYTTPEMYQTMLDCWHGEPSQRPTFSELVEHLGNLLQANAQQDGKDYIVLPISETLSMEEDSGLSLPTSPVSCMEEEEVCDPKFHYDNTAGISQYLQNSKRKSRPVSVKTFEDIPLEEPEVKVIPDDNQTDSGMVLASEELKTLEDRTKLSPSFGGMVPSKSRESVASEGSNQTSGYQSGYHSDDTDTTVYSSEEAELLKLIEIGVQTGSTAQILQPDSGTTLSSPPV

B1: recombinant, purified TCPTP (T-cell protein tyrosine phosphatase) (protein)
chain: MPTTIEREFEELDTQRRWQPLYLEIRNESHDYPHRVAKFPENRNRNRYRDVSPYDHSRVKLQNAENDYINASLVDIEEAQRSYILTQGPLPNTCCHFWLMVWQQKTKAVVMLNRIVEKESVKCAQYWPTDDQEMLFKETGFSVKLLSEDVKSYYTVHLLQLENINSGETRTISHFHYTTWPDFGVPESPASFLNFLFKVRESGSLNPDHGPAVIHCSAGIGRSGTFSLVDTCLVLMEKGDDINIKQVLLNMRKYRMGLIQTPDQLRFSYMAIIEGAKCIKGDSSIQKRWKELSKEDLSPAFDHSPNKIMTEKYNGNRIGLEEEKLTGDRCTGLSSKMQDTMEENSESALRKRIREDRKATTAQKVQQMKQRLNENERKRKRPRLTDT
- in vitro dephosphorylation of VEGFR2 tyrosines 996, 1175 and 1214: TCPTP showed a striking specificity to two tyrosine residues studied (Y1214 and Y996), while tyrosine 1175 was not a TCPTP target
- in vitro dephosphorylation of isolated VEGFR2 (immunoblot with phospho-specific VEGFR2 antibodies): purified, recombinant TCPTP was able to dephosphorylate isolated VEGFR2 in vitro
